Experimental data taken from patent US20200231974A1 (published 2020).

Biological target: T1, HCMV pp65 peptide on HLA-B*07:02 (human)
T1 peptide: TPRVTGGGAM
Test: multimer staining

B1: HBD4.1.S9-5.E3 (SEQ0717 and SEQ0718) (TCR, V domains shown)
Valpha: SQQGEEDPQALSIQEGENATMNCSYKTSINNLQWYRQNSGRGLVHLILIRSNEREKHSGRLRVTLDTSKKSSSLLITASRAADTASYFCATELRMDSSYKLIFGSGTRLLVRP
Vbeta: DTGVSQNPRHKITKRGQNVTFRCDPISEHNRLYWYRQTLGQGPEFLTYFQNEAQLEKSRLLSDRFSAERPKGSFSTLEIQRTEQGDSAMYLCASSLREGRLPETQYFGPGTRLLVL
binding result: recognises

B2: HBD4.1.S9-7.E5 (SEQ0713 and SEQ0714) (TCR, V domains shown)
Valpha: AQKITQTQPGMFVQEKEAVTLDCTYDTSDQSYGLFWYKQPSSGEMIFLIYQGSYDEQNATEGRYSLNFQKARKSANLVISASQLGDSAMYFCAMRPYTGGFKTIFGAGTRLFVKA
Vbeta: EAQVTQNPRYLITVTGKKLTVTCSQNMNHEYMSWYRQDPGLGLRQIYYSMNVEVTDKGDVPEGYKVSRKEKRNFPLILESPSPNQTSLYFCASSTSPSTARYGYTFGSGTRLTVV
binding result: recognises

B3: HBD4.1.S9-2.A6 (SEQ0709 and SEQ0710) (TCR, V domains shown)
Valpha: AQKITQTQPGMFVQEKEAVTLDCTYDTSDQSYGLFWYKQPSSGEMIFLIYQGSYDEQNATEGRYSLNFQKARKSANLVISASQLGDSAMYFCAMREGMDSSYKLIFGSGTRLLVRP
Vbeta: DTGVSQNPRHKITKRGQNVTFRCDPISEHNRLYWYRQTLGQGPEFLTYFQNEAQLEKSRLLSDRFSAERPKGSFSTLEIQRTEQGDSAMYLCASSLHDRGARTEAFFGQGTRLTVV
binding result: recognises

B4: HBD4.1.S9-1.D5 (SEQ0707 and SEQ0708) (TCR, V domains shown)
Valpha: DAKTTQPPSMDCAEGRAANLPCNHSTISGNEYVYWYRQIHSQGPQYIIHGLKNNETNEMASLIITEDRKSSTLILPHATLRDTAVYYCIVRDRYNTGNQFYFGTGTSLTVIP
Vbeta: EAQVTQNPRYLITVTGKKLTVTCSQNMNHEYMSWYRQDPGLGLRQIYYSMNVEVTDKGDVPEGYKVSRKEKRNFPLILESPSPNQTSLYFCASSLGPSSYEQYFGPGTRLTVT
binding result: recognises

B5: HBD4.1.S9-7.C5 (SEQ0715 and SEQ0716) (TCR, V domains shown)
Valpha: AQSVAQPEDQVNVAEGNPLTVKCTYSVSGNPYLFWYVQYPNRGLQFLLKYITGDNLVKGSYGFEAEFNKSQTSFHLKKPSALVSDSALYFCAVRSRMDSSYKLIFGSGTRLLVRP
Vbeta: DTGVSQNPRHKITKRGQNVTFRCDPISEHNRLYWYRQTLGQGPEFLTYFQNEAQLEKSRLLSDRFSAERPKGSFSTLEIQRTEQGDSAMYLCASSPPDAAYNEQFFGPGTRLTVL
binding result: recognises
